Reference: PMC10034513
Each block holds one substance with its values, some of them ahead of it.

Tests used:
[1] = biological target: P74-26 TTP L229A variant (bacteriophage P74-26); experiment: light scattering of tube assembly; filtered TTP at ~1 mg/ml, scattering at 350 nm over time; wild type at 4, 20, 25, 37 and 50 °C and a concentration series at 37 °C; variants at 20 °C
[2] = biological target: P74-26 TTP Q167A variant (bacteriophage P74-26); experiment: SEC-MALS; 100 μl at 1 mg/ml, filtered through 0.22 μm before loading; 50 mM Tris pH 8.0, 150 mM KCl, 5 mM βME, 5% glycerol; run at room temperature
[3] = biological target: P74-26 tail tube protein (TTP), gp93, in tails of purified virions (bacteriophage P74-26); experiment: cryo-EM structure; tails of purified P74-26 virions, segmented helical reconstruction (C3, rise 40.25 Å, twist -44.75°)
[4] = SEC-MALS; 100 μl at 1 mg/ml, filtered through 0.22 μm before loading; 50 mM Tris pH 8.0, 150 mM KCl, 5 mM βME, 5% glycerol; run at room temperature
[5] = biological target: P74-26 tail tube protein (TTP), gp93, recombinant wild type (bacteriophage P74-26); experiment: as above
[6] = biological target: P74-26 tail tube protein (TTP), gp93, recombinant wild type (bacteriophage P74-26); experiment: light scattering of tube assembly; filtered TTP at ~1 mg/ml, scattering at 350 nm over time; wild type at 4, 20, 25, 37 and 50 °C and a concentration series at 37 °C; variants at 20 °C

Substance: P74-26 TTP L229A variant (natural protein)
tube formation rate relative to WT (% of the WT rate) [1]: 10

Substance: P74-26 tail tube protein (TTP), gp93, recombinant wild type
mass fraction of the monomer peak [4]: ∼76% mass fraction

Substance: P74-26 tail tube protein (TTP), gp93, recombinant wild type (natural protein)
mass fraction of the hexamer peak [5]: 6%
stoichiometry N [5]: 6
fast-phase tube growth rate at 37 °C relative to the 20 °C rate (fold (× the 20 °C rate)) [6]: 68
fast-phase tube growth rate at 50 °C relative to the 20 °C rate (fold (× the 20 °C rate)) [6]: 3520

The next lines start with the values.

stoichiometry N [2]: 3
Substance: P74-26 TTP Q167A variant (natural protein)

stoichiometry N [3]: 3
Substance: P74-26 tail tube protein (TTP), gp93, in tails of purified virions (natural protein)
